19 molecules from patent publication US20240034774A1 (Gilead, published 2024) can be followed below.

Residue numbers refer to the chain shown, from its start.

Sequences and labels used below:
B1: 1.20.1-1 (antibody, human IgG1, kappa)
heavy: QVQLLQSGAAVTKPGASVRVSCEASGYNIRDYFIHWWRQAPGQGLQWVGWINPKTGQPNNPRQFQGRVTMTRHASWDFDTFSFYMDLKALRSDDTAVYFCARQRSDYWDFDVWGSGTQVTVSSASTKGPSVFPLAPSSKSTSGGTAALGCLVKDYFPEPVTVSWNSGALTSGVHTFPAVLQSSGLYSLSSVVTVPSSSLGTQTYICNVNHKPSNTKVDKKVEPKSCDKTHTCPPCPAPELLAGPDVFLFPPKPKDTLMISRTPEVTCVVVDVSHEDPEVKFNWYVDGVEVHNAKTKPREEQYNSTYRVVSVLTVLHQDWLNGKEYKCKVSNKALPLPEEKTISKAKGQPREPQVYTLPPSREEMTKNQVSLTCLVKGFYPSDIAVEWESNGQPENNYKTTPPVLDSDGSFFLYSKLTVDKSRWQQGNVFSCSVLHEALHSHYTQKSLSLSPGK
light: DIQMTQSPSSLSASVGDTVTITCQANGYLNWYQQRRGKAPKLLIYDGSKLERGVPSRFSGRRWGQEYNLTINNLQPEDIATYFCQVYEFVVPGTRLDLKRTVAAPSVFIFPPSDEQLKSGTASVVCLLNNFYPREAKVQWKVDNALQSGNSQESVTEQDSKDSTYSLSSTLTLSKADYEKHKVYACEVTHQGLSSPVTKSFNRGEC
B2: 1.27.1-1 (antibody, human IgG1, kappa)
heavy: B1 heavy with T69S, M70L, S105T
light: B1 light
B3: 1.29.1-1 (antibody, human IgG1, kappa)
heavy: B1 heavy with T69S, M70L, S115Q
light: B1 light
B4: 1.28.1-1 (antibody, human IgG1, kappa)
heavy: B1 heavy with T69S, M70L, V97T, S105T
light: B1 light
B5: 1.31.32-1 (antibody, human IgG1, kappa)
heavy: B1 heavy with L5V, A10E, T69S, M70L, V97T
light: B1 light with N68T, N72S, N73S, V91T
B6: 1.31.34-1 (antibody, human IgG1, kappa)
heavy: B1 heavy with L5V, A10E, T69S, M70L, V97T
light: B1 light with K49N, N68T, N72S, N73S, V91T, L98I
B7: 1.26.1-1 (antibody, human IgG1, kappa)
heavy: B1 heavy with T69S, M70L, V97T
light: B1 light
B8: 1.30.1-1 (antibody, human IgG1, kappa)
heavy: B1 heavy with T69S, M70L, Q118M
light: B1 light
B9: 1.32.34-1 (antibody, human IgG1, kappa)
heavy: B1 heavy with L5V, A10E, T69S, M70L, S105T
light: B1 light with K49N, N68T, N72S, N73S, V91T, L98I
B10: 1.24.1-1 (antibody, human IgG1, kappa)
heavy: B1 heavy with T69S, M70L, Y84S
light: B1 light
B11: 1.32.32-1 (antibody, human IgG1, kappa)
heavy: B1 heavy with L5V, A10E, T69S, M70L, S105T
light: B1 light with N68T, N72S, N73S, V91T
B12: 1.32.33-1 (antibody, human IgG1, kappa)
heavy: B1 heavy with L5V, A10E, T69S, M70L, S105T
light: B1 light with K49N, N68T, N72S, N73S, R95N, L98I
B13: 1.31.33-1 (antibody, human IgG1, kappa)
heavy: B1 heavy with L5V, A10E, T69S, M70L, V97T
light: B1 light with K49N, N68T, N72S, N73S, R95N, L98I
B14: 1.25.1-1 (antibody, human IgG1, kappa)
heavy: B1 heavy with T69S, M70L, K88S, A89R
light: B1 light
B15: 1.32.31-1 (antibody, human IgG1, kappa)
heavy: B1 heavy with L5V, A10E, T69S, M70L, S105T
light: B1 light with N68T, N72S, N73S, R95N
B16: 1.31.1-1 (antibody, human IgG1, kappa)
heavy: B1 heavy with L5V, A10E, T69S, M70L, V97T
light: B1 light
B17: 1.21.1-1 (antibody, human IgG1, kappa)
heavy: B1 heavy with T69S, M70L, H73D
light: B1 light
B18: 1.32.1-1 (antibody, human IgG1, kappa)
heavy: B1 heavy with L5V, A10E, T69S, M70L, S105T
light: B1 light
B19: 1.31.31-1 (antibody, human IgG1, kappa)
heavy: B1 heavy with L5V, A10E, T69S, M70L, V97T
light: B1 light with N68T, N72S, N73S, R95N

In the first assay the target is BSA (UniProt P02769 25-607). Nature of the assay: single-point ELISA, BSA control. (ELISA stands for enzyme-linked immunosorbent assay.)
In the case of B1, the “ELISA A450” value stood at 0.06 A450.

On to B2, for which the “ELISA A450” value worked out at 0.07 A450.

For the molecule B3, the “ELISA A450” value is 0.06 A450.

On to B4, for which the “ELISA A450” value is 0.06 A450.

In the case of B5, the “ELISA A450” value was 0.06 A450.

B6: the “ELISA A450” value was 0.06 A450.

Take B7: the “ELISA A450” value was determined as 0.06 A450.

For B8, the “ELISA A450” value is 0.06 A450.

Take B9: the “ELISA A450” value worked out at 0.06 A450.

For the molecule B10, the “ELISA A450” value turned out to be 0.06 A450.

For the molecule B11, the “ELISA A450” value was determined as 0.08 A450.

On to B12, for which the “ELISA A450” value came out at 0.06 A450.

As for B13, the “ELISA A450” value was determined as 0.06 A450.

On to B14, for which the “ELISA A450” value was determined as 0.06 A450.

B15: the “ELISA A450” value came to 0.07 A450.

As for B16, the “ELISA A450” value was 0.06 A450.

With B17, the “ELISA A450” value stood at 0.07 A450.

Take B18: the “ELISA A450” value worked out at 0.06 A450.

For the molecule B19, the “ELISA A450” value worked out at 0.07 A450.

A further assay addresses gp120 CAAN (HIV (CAAN)). Nature of the assay: single-point ELISA at EC50 conc. of A-1.
For the molecule B1, the “ELISA A450” value turned out to be 0.8 A450.

Consider B2, for which the “ELISA A450” value was 0.86 A450.

For B3, the “ELISA A450” value amounted to 1.08 A450.

In the case of B4, the “ELISA A450” value stood at 0.99 A450.

In the case of B5, the “ELISA A450” value is 1.04 A450.

For the molecule B6, the “ELISA A450” value was 0.86 A450.

B7: the “ELISA A450” value was 1 A450.

For B8, the “ELISA A450” value was determined as 1.05 A450.

As for B9, the “ELISA A450” value worked out at 0.86 A450.

With B10, the “ELISA A450” value worked out at 0.9 A450.

B11: the “ELISA A450” value stood at 0.9 A450.

In the case of B12, the “ELISA A450” value stood at 0.68 A450.

With B13, the “ELISA A450” value came to 0.86 A450.

Turning to B14, the “ELISA A450” value amounted to 1.16 A450.

As for B15, the “ELISA A450” value was determined as 0.9 A450.

As for B16, the “ELISA A450” value worked out at 0.92 A450.

For the molecule B17, the “ELISA A450” value stood at 0.77 A450.

B18: the “ELISA A450” value worked out at 0.83 A450.

Regarding B19, the “ELISA A450” value came out at 1.02 A450.

For a further assay, the target named is gp120 SHIV SF162 P3 (SHIV SF162 P3). Nature of the assay: single-point ELISA at EC50 conc. of A-1.
As to B1, the “ELISA A450” value was 0.91 A450.

Regarding B2, the “ELISA A450” value was found to be 0.86 A450.

B3: the “ELISA A450” value was 0.98 A450.

Turning to B4, the “ELISA A450” value stood at 0.99 A450.

Consider B5, for which the “ELISA A450” value was 0.91 A450.

Consider B6, for which the “ELISA A450” value turned out to be 0.82 A450.

B7: the “ELISA A450” value worked out at 0.94 A450.

For B8, the “ELISA A450” value is 1.03 A450.

On to B9, for which the “ELISA A450” value is 0.71 A450.

As for B10, the “ELISA A450” value amounted to 1.09 A450.

Consider B11, for which the “ELISA A450” value amounted to 0.7 A450.

For B12, the “ELISA A450” value stood at 0.71 A450.

With B13, the “ELISA A450” value came to 0.74 A450.

In the case of B14, the “ELISA A450” value was 1.03 A450.

Regarding B15, the “ELISA A450” value is 0.66 A450.

In the case of B16, the “ELISA A450” value is 0.87 A450.

With B17, the “ELISA A450” value worked out at 0.82 A450.

For the molecule B18, the “ELISA A450” value was 0.91 A450.

As to B19, the “ELISA A450” value was found to be 0.97 A450.

The target of a further assay is gp120 Bal (HIV (Bal)). Description: single-point ELISA at EC50 conc. of A-1.
B1: the “ELISA A450” value was 0.89 A450.

B2: the “ELISA A450” value amounted to 0.86 A450.

Consider B3, for which the “ELISA A450” value turned out to be 1.03 A450.

As to B4, the “ELISA A450” value stood at 1.05 A450.

As for B5, the “ELISA A450” value was determined as 0.98 A450.

For B6, the “ELISA A450” value came to 0.76 A450.

For B7, the “ELISA A450” value came out at 0.81 A450.

Take B8: the “ELISA A450” value was determined as 0.81 A450.

With B9, the “ELISA A450” value was 0.81 A450.

In the case of B10, the “ELISA A450” value was found to be 0.98 A450.

B11: the “ELISA A450” value was determined as 0.89 A450.

In the case of B12, the “ELISA A450” value was 0.93 A450.

On to B13, for which the “ELISA A450” value amounted to 0.89 A450.

B14: the “ELISA A450” value was 1.07 A450.

With B15, the “ELISA A450” value is 0.95 A450.

B16: the “ELISA A450” value turned out to be 0.82 A450.

Turning to B17, the “ELISA A450” value amounted to 0.87 A450.

With B18, the “ELISA A450” value was found to be 0.93 A450.

On to B19, for which the “ELISA A450” value stood at 0.98 A450.
